For one data set, the target named is BAF250a ARID WT (UniProt O14497 968-1143). The data set can be described thus: ITC; 25 C; dH 1.51 kcal/mol; n 1.03; ITC: 50 mM NaH2PO4 pH 6, 0.025 mM EDTA, 25 C; 20 uM DNA in cell titrated with 200 uM protein. To be noted: protein: recombinant; tags: N-terminal 6xHis (pET28a); blunt; self-complementary palindrome, 2 copies; snap cooled on ice after heating. Background: ITC needs no label: the signal is the heat of the interaction.

The next data set concerns the target BAF250a ARID V1067G (UniProt O14497 968-1143, V1067G). The data set is described as follows: ITC; 25 C; dH -0.69 kcal/mol; n 1.04; ITC: 50 mM NaH2PO4 pH 6, 0.025 mM EDTA, 25 C; 20 uM DNA in cell titrated with 200 uM protein. To be noted: protein: recombinant; tags: N-terminal 6xHis (pET28a); blunt; self-complementary palindrome, 2 copies; snap cooled on ice after heating.

Sequence of BAF250a ARID V1067G (O14497 968-1143 V1067G): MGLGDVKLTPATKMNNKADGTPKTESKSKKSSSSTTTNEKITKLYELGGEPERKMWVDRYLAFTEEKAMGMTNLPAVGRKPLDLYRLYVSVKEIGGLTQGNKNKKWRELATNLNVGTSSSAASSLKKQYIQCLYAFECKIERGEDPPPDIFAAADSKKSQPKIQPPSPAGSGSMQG
Sequence of BAF250a ARID WT (O14497 968-1143): as the sequence (O14497 968-1143 V1067G) above, with G100V counted along it

B1: DD12 dsDNA (Dickerson dodecamer) (dsDNA)
DNA 1: CGCGAATTCGCG
DNA 2: CGCGAATTCGCG
Turning to B1, the results for the Kd in the data set with BAF250a ARID WT and in the data set with BAF250a ARID V1067G were 71.9 ± 37.7 nM and 694 ± 331 nM, respectively.
